The supplement of paper PMC5998384

How the values were obtained:
[1] = system: HeLa Kyoto; experiment: solubility change mitosis vs G1/S (difference of NP-40 vs SDS log2 ratios) (log2 ratio difference); higher = more soluble in mitosis
[2] = system: HeLa Kyoto; experiment: thermal stability score vs G1/S (z-score of summed log2 fold changes over temperatures); higher = more thermally stable than in G1/S
[3] = system: HeLa Kyoto; experiment: melting temperature (median over replicates), in situ; higher = more thermally stable
[4] = system: HeLa Kyoto; experiment: solubility in G1/S (NP-40 vs SDS abundance) (log2 ratio); higher = more soluble; settings: cell cycle stage: G1/S
[5] = cell cycle stage: early G1 (4.5 h after nocodazole release)
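Wherever melting temperature (median over replicates), in situ is given: HeLa Kyoto cells synchronized by double thymidine or nocodazole block, proteins quantified by TMT10plex mass spectrometry, three independent biological replicates.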
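Wherever solubility change mitosis vs G1/S (difference of NP-40 vs SDS log2 ratios) is given: synchronized HeLa Kyoto cells (double thymidine block for G1/S, nocodazole release for mitosis), protein amounts in NP-40 versus SDS lysates quantified by mass spectrometry, three biological replicates.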
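Wherever solubility in G1/S (NP-40 vs SDS abundance) is given: HeLa Kyoto cells arrested at G1/S by double thymidine block, proteins quantified by TMT10plex mass spectrometry in mild NP-40 versus SDS extracts, three biological replicates.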
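Wherever thermal stability score vs G1/S (z-score of summed log2 fold changes over temperatures) is given: synchronized HeLa Kyoto cells, proteins quantified by TMT10plex mass spectrometry, three biological replicates, mitosis taken 0.5 h after nocodazole release, G1/S directly after double thymidine block.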

## MASNVTNKTDPRSMNSRVFIGNLNTLVVKKSDVEAIFSKYGKIVGCSVHKGFAFVQYVNERNARAAVAGEDGRMIAGQVLDINLAAEPKVNRGKAGVKRSAAEMYGSVTEHPSPSPLLSSSFDLDYDFQRDYYDRMYSYPARVPPPPPIARAVVPSKRQRVSGNTSRRGKSGFNSKSGQRGSSKSGKLKGDDLQAIKKELTQIKQKVDSLLENLEKIEKEQSKQAVEMKNDKSEEEQSSSSVKKDETNVKMESEGGADDSAEEGDLLDDDDNEDRGDDQLELIKDDEKEAEEGEDDRDSANGEDDS [HNRNPC]
[1]
  solubility change mitosis (log2): 0.36
[2]; [5]
  thermal stability score: 7.33
[2]; cell cycle stage: mitosis
  thermal stability score: 16.5
[3]; cell cycle stage: G1/S
  melting temperature: 47.4 °C
[3]; cell cycle stage: mitosis
  melting temperature: 49.5 °C
[4]
  solubility in G1/S (log2): -0.0638

## MAAPMEVAVCTDSAAPMWSCIVWELHSGANLLTYRGGQAGPRGLALLNGEYLLAAQLGKNYISAWELQRKDQLQQKIMCPGPVTCLTASPNGLYVLAGVAESIHLWEVSTGNLLVILSRHYQDVSCLQFTGDSSHFISGGKDCLVLVWSLCSVLQADPSRIPAPRHVWSHHALPITDLHCGFGGPLARVATSSLDQTVKLWEVSSGELLLSVLFDVSIMAVTMDLAEHHMFCGGSEGSIFQVDLFTWPGQRERSFHPEQDAGKVFKGHRNQVTCLSVSTDGSVLLSGSHDETVRLWDVQSKQCIRTVALKGPVTNAAILLAPVSMLSSDFRPSLPLPHFNKHLLGAEHGDEPRHGGLTLRLGLHQQGSEPSYLDRTEQLQAVLCSTMEKSVLGGQDQLRVRVTELEDEVRNLRKINRDLFDFSTRFITRPAK [WDR18]
[1]
  solubility change mitosis (log2): 0.571
[2]; [5]
  thermal stability score: -1.8
[2]; cell cycle stage: mitosis
  thermal stability score: -5.26
[3]; cell cycle stage: G1/S
  melting temperature: 56.6 °C
[3]; cell cycle stage: mitosis
  melting temperature: 54.1 °C
[4]
  solubility in G1/S (log2): -1.23

## MSEGNAAGEPSTPGGPRPLLTGARGLIGRRPAPPLTPGRLPSIRSRDLTLGGVKKKTFTPNIISRKIKEEPKEEVTVKKEKRERDRDRQREGHGRGRGRPEVIQSHSIFEQGPAEMMKKKGNWDKTVDVSDMGPSHIINIKKEKRETDEETKQILRMLEKDDFLDDPGLRNDTRNMPVQLPLAHSGWLFKEENDEPDVKPWLAGPKEEDMEVDIPAVKVKEEPRDEEEEAKMKAPPKAARKTPGLPKDVSVAELLRELSLTKEEELLFLQLPDTLPGQPPTQDIKPIKTEVQGEDGQVVLIKQEKDREAKLAENACTLADLTEGQVGKLLIRKSGRVQLLLGKVTLDVTMGTACSFLQELVSVGLGDSRTGEMTVLGHVKHKLVCSPDFESLLDHKHR [POLR3D]
[1]
  solubility change mitosis (log2): -0.118
[2]; [5]
  thermal stability score: -0.688
[2]; cell cycle stage: mitosis
  thermal stability score: -1.1
[3]; cell cycle stage: mitosis
  melting temperature: 48.8 °C
[4]
  solubility in G1/S (log2): 0.144

## MSSRIARALALVVTLLHLTRLALSTCPAACHCPLEAPKCAPGVGLVRDGCGCCKVCAKQLNEDCSKTQPCDHTKGLECNFGASSTALKGICRAQSEGRPCEYNSRIYQNGESFQPNCKHQCTCIDGAVGCIPLCPQELSLPNLGCPNPRLVKVTGQCCEEWVCDEDSIKDPMEDQDGLLGKELGFDASEVELTRNNELIAVGKGSSLKRLPVFGMEPRILYNPLQGQKCIVQTTSWSQCSKTCGTGISTRVTNDNPECRLVKETRICEVRPCGQPVYSSLKKGKKCSKTKKSPEPVRFTYAGCLSVKKYRPKYCGSCVDGRCCTPQLTRTVKMRFRCEDGETFSKNVMMIQSCKCNYNCPHANEAAFPFYRLFNDIHKFRD [CYR61]
[1]
  solubility change mitosis (log2): -0.133
[2]; [5]
  thermal stability score: 5.63
[2]; cell cycle stage: mitosis
  thermal stability score: 3.33
[3]; cell cycle stage: G1/S
  melting temperature: 52.8 °C
[3]; cell cycle stage: mitosis
  melting temperature: 54.1 °C
[4]
  solubility in G1/S (log2): -0.183

## MTTYLEFIQQNEERDGVRFSWNVWPSSRLEATRMVVPVAALFTPLKERPDLPPIQYEPVLCSRTTCRAVLNPLCQVDYRAKLWACNFCYQRNQFPPSYAGISELNQPAELLPQFSSIEYVVLRGPQMPLIFLYVVDTCMEDEDLQALKESMQMSLSLLPPTALVGLITFGRMVQVHELGCEGISKSYVFRGTKDLSAKQLQEMLGLSKVPLTQATRGPQVQQPPPSNRFLQPVQKIDMNLTDLLGELQRDPWPVPQGKRPLRSSGVALSIAVGLLECTFPNTGARIMMFIGGPATQGPGMVVGDELKTPIRSWHDIDKDNAKYVKKGTKHFEALANRAATTGHVIDIYACALDQTGLLEMKCCPNLTGGYMVMGDSFNTSLFKQTFQRVFTKDMHGQFKMGFGGTLEIKTSREIKISGAIGPCVSLNSKGPCVSENEIGTGGTCQWKICGLSPTTTLAIYFEVVNQHNAPIPQGGRGAIQFVTQYQHSSGQRRIRVTTIARNWADAQTQIQNIAASFDQEAAAILMARLAIYRAETEEGPDVLRWLDRQLIRLCQKFGEYHKDDPSSFRFSETFSLYPQFMFHLRRSSFLQVFNNSPDESSYYRHHFMRQDLTQSLIMIQPILYAYSFSGPPEPVLLDSSSILADRILLMDTFFQILIYHGETIAQWRKSGYQDMPEYENFRHLLQAPVDDAQEILHSRFPMPRYIDTEHGGSQARFLLSKVNPSQTHNNMYAWGQESGAPILTDDVSLQVFMDHLKKLAVSSAA [SEC23A]
[1]
  solubility change mitosis (log2): -0.0745
[2]; [5]
  thermal stability score: -0.157
[2]; cell cycle stage: mitosis
  thermal stability score: 0.129
[3]; cell cycle stage: G1/S
  melting temperature: 50 °C
[3]; cell cycle stage: mitosis
  melting temperature: 50.2 °C
[4]
  solubility in G1/S (log2): -0.0681

## MDKVCAVFGGSRGIGRAVAQLMARKGYRLAVIARNLEGAKAAAGDLGGDHLAFSCDVAKEHDVQNTFEELEKHLGRVNFLVNAAGINRDGLLVRTKTEDMVSQLHTNLLGSMLTCKAAMRTMIQQQGGSIVNVGSIVGLKGNSGQSVYSASKGGLVGFSRALAKEVARKKIRVNVVAPGFVHTDMTKDLKEEHLKKNIPLGRFGETIEVAHAVVFLLESPYITGHVLVVDGGLQLIL [CBR4]
[1]
  solubility change mitosis (log2): -0.0343
[2]; [5]
  thermal stability score: 1.14
[2]; cell cycle stage: mitosis
  thermal stability score: -0.318
[3]; cell cycle stage: G1/S
  melting temperature: 54 °C
[3]; cell cycle stage: mitosis
  melting temperature: 55.2 °C
[4]
  solubility in G1/S (log2): 0.0654
